Measured values as given in patent US7439329B2, “GEF-H1b: biomarkers, complexes assays and therapeutic uses thereof” (Sugen, Inc., priority 2002, dated 2008).

What was measured:
[1] = target: T1, PAK4 (Homo sapiens, UniProt O96013); assay: GST pull-down binding assay with 293T lysates expressing exogenous PAK4; design: expressed in transfected cells; host or cells: 293T; settings: GST-fusion protein on glutathione beads
Procedure: FIG. 1: (SEQ ID NOs 32-34 respectively in order of appearance) Direct binding of GEF-H1 to PAK4. Lysates were prepared from 293T cells over expressing (a) myc tagged PAK4 alleles or subdomains and incubated with GST, GST-GEF-H1 (787-921) and GST-Maguin-like bound to Glutathione beads (1,2,3,4 bead designation) or (b) GFP-GEF-H1 and incubated with PAK4 biotinylated peptides (291-355) and (276-324) linked to streptavidin beads. An equivalent amount of beads and excess lysates (500 ug) were used. Eluates of beads and total lysates were analysed by SDS-PAGE and immunoblotted with myc or GEF-H1 antiserum; (c) represents a PAK4 gene schematic outlining the regions of PAK4 used to identify the GEF-H1 interaction domain (GID). d, alignment of the GID defined by the minimal binding region of PAK4 with PAK5 and PAK6.
To confirm the in vitro interaction of GEF-H1S with PAK4, bacterially expressed GST-fusion proteins were generated with the identical sequences isolated by phage display, encoding either amino acids 763-921 of GEF-H1S or amino acids 385-555 from the Maguin-2-like protein. These fusion proteins were bound to glutathione beads and utilized in binding assays with 293T lysates expressing exogenous PAK4. […]
Target sequence in this assay (O96013 whole entry, the tested form may be a part): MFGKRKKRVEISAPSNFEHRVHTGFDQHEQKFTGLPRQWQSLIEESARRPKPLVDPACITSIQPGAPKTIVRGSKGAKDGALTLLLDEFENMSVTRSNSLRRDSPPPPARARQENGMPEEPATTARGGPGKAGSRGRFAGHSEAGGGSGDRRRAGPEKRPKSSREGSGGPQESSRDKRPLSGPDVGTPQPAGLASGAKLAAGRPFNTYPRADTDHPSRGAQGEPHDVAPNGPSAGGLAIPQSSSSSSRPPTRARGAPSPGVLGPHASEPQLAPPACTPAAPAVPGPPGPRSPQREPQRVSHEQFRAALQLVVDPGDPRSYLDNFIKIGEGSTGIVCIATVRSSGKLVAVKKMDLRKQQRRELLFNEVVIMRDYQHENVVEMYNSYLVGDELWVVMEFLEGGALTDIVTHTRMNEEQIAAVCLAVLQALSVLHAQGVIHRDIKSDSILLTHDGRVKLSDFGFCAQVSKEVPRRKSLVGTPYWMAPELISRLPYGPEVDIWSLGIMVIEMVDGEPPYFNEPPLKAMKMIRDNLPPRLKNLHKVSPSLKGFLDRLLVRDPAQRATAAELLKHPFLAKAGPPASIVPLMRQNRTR

[2] = target: T1, PAK4; assay: In vitro kinase assay, phosphorylation of substrates by PAK4; type: biochemical; design: Glutathione-s-transferase (GST) fused PAK4 (residues 291-591); GST (N); made in house; settings: autoradiography
Procedure: Next examined, was whether GEF-H1 is a PAK4 substrate. In vitro kinase assays were performed using a GEF-H1 GST-fusion protein, a Maguin-2-like GST-fusion protein and GST control protein as substrates for phosphorylation by PAK4.
The cDNA encoding GEF-H1S obtained in the phage display screen was excised and subcloned into pGEX-4T expression vector to allow for recombinant production of protein for in vitro experiments. The GEF-H1S protein was then mixed with PAK4 kinase and incubated such that PAK4 phosphorylated the GEF-H1S. A portion of this kinase reaction was separated by SDS-PAGE and autoradiographed to visualize the extent of phosphorylation. […] SDS-PAGE is a universal protein separation and visualization technique that is described in Laemmli, Nature, 227(259):680-5, 1970.
From the phosphorylation experiments described above, two peptides of GEF-H1S were identified as being targets for PAK4-induced phosphorylation. The GEF-H1S target residues were identified by aligning the PAK4 activation loop peptide with the GEF-H1S polypeptide sequence amino acids 762 to 921.
The following phosphoisomers (phosphate-modified GEF-H1S peptides) were used in PAK4 kinase assays to determine which residues were specifically phosphorylated. Because certain residues were modified to comprise a phosphate moiety (the underlined residues below), they could not be phosphorylated by PAK4. […]
Target sequence in this assay (O96013 291-591): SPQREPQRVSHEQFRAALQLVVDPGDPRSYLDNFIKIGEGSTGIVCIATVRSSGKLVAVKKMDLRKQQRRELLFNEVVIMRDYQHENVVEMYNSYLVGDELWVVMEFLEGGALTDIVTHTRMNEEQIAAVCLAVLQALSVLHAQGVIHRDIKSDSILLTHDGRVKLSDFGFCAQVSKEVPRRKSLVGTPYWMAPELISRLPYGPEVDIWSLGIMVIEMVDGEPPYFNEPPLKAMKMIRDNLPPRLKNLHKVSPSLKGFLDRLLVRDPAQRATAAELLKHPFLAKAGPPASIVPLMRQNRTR

B1: GST-GEF-H1S (aa763-921): bacterially expressed GST-fusion protein of amino acids 763-921 of GEF-H1S (protein)
chain: LRESEQARALLEREAEEARRQLAALGQTEPLPAEAPWARRPVDPRRRSLPAGDALYLSFNPPQPSRGTDRLDLPVTTRSVHRNFEDRERQELGSPEERLQDSSDPDTGSEEEGSSRLSPPHSPRGETLAETWTRDFTRMQDIPEETESRDGEAVASES
modifications: left off: a dimerising Fc or GST
notes: bacterially expressed GST-fusion protein of amino acids 763-921 of GEF-H1S
For B1, the “binding to full-length myc-tagged PAK4 protein and the kinase domain (amino acids 291-591)” value [1] was “able to bind strongly” and the “phosphorylation by PAK4 in vitro” value [2] was “showed phosphorylation”.
